We go through one molecule from article PMC4260917, “Defective FANCI Binding by a Fanconi Anemia-Related FANCD2 Mutant” (PLoS ONE, 2014).

For the test, the target named is T1, chicken FANCD2, wild type, purified recombinant (chicken, UniProt Q68Y81 1-1439).
T1 construct: FANCD2, chicken (Gallus gallus); also called cFANCD2; WT cFANCD2; source: E. coli BL21(DE3) codon(+)RIL, purified
The test is described as follows: SEC; Superdex 200 10/300 GL; equimolar mixture of cFANCD2 and cFANCI; 20 mM Tris-HCl (pH 8.0), 10% glycerol, 200 mM NaCl, 5 mM 2-mercaptoethanol; fractions on 7% SDS-PAGE, silver staining. The note with it: both partners purified. (In gel filtration, larger molecules generally elute earlier.)

T1 sequence (Q68Y81 whole entry): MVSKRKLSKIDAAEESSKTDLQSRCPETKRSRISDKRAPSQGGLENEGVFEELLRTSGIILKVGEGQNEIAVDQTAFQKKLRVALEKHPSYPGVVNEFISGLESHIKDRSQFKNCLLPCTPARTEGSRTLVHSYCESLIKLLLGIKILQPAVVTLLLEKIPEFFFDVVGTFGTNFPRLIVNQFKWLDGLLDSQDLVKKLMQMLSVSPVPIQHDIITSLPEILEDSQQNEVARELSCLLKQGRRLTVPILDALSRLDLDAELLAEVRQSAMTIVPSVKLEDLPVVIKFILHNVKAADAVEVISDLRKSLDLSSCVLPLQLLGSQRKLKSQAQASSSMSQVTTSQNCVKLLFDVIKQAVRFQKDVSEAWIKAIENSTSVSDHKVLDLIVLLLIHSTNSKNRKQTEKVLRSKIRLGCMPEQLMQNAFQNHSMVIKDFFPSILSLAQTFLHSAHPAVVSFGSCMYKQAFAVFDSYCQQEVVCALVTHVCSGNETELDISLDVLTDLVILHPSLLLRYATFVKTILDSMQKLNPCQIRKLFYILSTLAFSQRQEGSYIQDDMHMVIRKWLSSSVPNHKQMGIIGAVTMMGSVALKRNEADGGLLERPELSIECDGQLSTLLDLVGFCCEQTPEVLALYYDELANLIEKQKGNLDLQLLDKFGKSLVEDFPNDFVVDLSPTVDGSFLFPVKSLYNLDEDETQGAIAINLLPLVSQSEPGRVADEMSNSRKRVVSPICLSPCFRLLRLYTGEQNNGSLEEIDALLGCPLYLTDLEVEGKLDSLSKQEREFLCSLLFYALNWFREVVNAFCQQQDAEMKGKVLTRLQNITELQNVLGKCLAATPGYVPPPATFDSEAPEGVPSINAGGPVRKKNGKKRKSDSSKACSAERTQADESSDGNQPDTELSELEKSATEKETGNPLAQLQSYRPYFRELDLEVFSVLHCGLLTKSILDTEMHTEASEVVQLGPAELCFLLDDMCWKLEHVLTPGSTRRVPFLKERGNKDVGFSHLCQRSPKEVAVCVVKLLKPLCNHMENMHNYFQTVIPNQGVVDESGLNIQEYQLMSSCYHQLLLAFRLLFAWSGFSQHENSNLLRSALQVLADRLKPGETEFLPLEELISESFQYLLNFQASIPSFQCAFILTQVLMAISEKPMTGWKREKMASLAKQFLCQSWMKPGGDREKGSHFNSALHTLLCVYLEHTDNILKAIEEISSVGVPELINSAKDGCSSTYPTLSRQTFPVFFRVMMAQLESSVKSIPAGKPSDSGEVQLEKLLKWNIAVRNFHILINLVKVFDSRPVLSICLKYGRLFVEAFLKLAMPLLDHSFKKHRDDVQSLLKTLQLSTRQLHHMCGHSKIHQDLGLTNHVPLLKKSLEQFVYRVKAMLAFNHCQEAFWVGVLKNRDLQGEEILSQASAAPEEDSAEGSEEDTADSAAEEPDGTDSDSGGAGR

B1: chicken FANCI, wild type, purified recombinant (natural protein, UniProt B0I564 1-1338, looked up)
chain: MAQRILQLAAEGSPERLQEALQGLTEGELGDMVTRQALRGRETAALLKGIFKGSPCSQQSGVLRRLQVYKHCVSLVESGDLHVGKVSEIIGLLMLEARQLPGHALAELATLFVEVIKRGSLSNGKSLELFSTVLTALSNSKESLAYGKGELNGEEFKKQLINTLCSSKWDPQCVIHLANMFRDIPLSGEELQFVVEKVLRMFSKLDLQEIPPLVYQLLLLSAKGSKKTVLEGIISFFNQLDKRQKEEQRVPQSADLEVATVPLDQLRHVEGTVILHIVSAINLDQDIGEELIKHLKTEQQKDPGKALCPFSVSLLLSTAVKHRLQEQIFDFLKTSITRSCKDLQILQASKFLQDLCPQQYDVTAVILEVVKNSAFGWDHVTQGLVDLGFSLMESYEPKKSFGGKAAETNLGLSKMPAQQACKLGASILLETFKVHEPIRSDILEQVLNRVLTKAASPVSHFIDLLSNIVVSAPLVLQNSSSRVTETFDNLSFLPIDTVQGLLRAVQPLLKVSMSVRDSLILVLQKAIFSRQLDARKAAVAGFLLLLRNFKILGSLTSSQCSQAIGATQVQADVHACYNSAANEAFCLEILGSLRRCLSQQADVRLMLYEGFYDVLRRNSQLASSIMETLLSQIKQYYLPQQDLLPPLKLEGCIMAQGDQIFLQEPLAHLLCCIQHCLAWYKSTVHLCKGAEDEEEEEDVGFEQNFEEMLESVTRRMIKSELEDFELDKSADFSPSSGVGVKNNIYAIQVMGICEVLIEYNFKIGNFSKNKFEDVLGLFTCYNKLSEILKEKAGKNKSTLGNRIARSFLSMGFVSTLLTALFRDNAQSHEESLAVLRSSTEFMRYAVSVALQKVQQLEEMGQTDGPDGQNPEKMFQNLCKITRVLLWRYTSIPTAVEESGKKKGKSISLLCLEGLLRIFNTMQQLYAARIPQFLQALDITDGDAEEADINVTEKAAFQIRQFQRSLVNQLSSAEDDFNSKETQLLITILSTLSKLLDPGSQQFLQFLTWTVKICKENALEDLSCCKGLLTLLFSLHVLYKSPVSLLRELAQDIHACLGDIDQDVEIESRSHFAIVNVKTAAPTVCLLVLGQADKVLEEVDWLIKRLTILGSDTSEDSTQASNQTQALEKGVILQLGTLLTVFHELVQTALPAGSCVDSLLRSLSKTYAILTSLIKHYIQACRSTSNTVPGRLEKLVKLSGSHLTPQCYSFITYVQNIHSESLSFAEEKKKKKKEDETAVVSTVMAKVLRDTKPIPNLIFAIEQYEKFLIHLSKKSKVNLMQYMKLSTSRDFRINASMLDSVLQEQNTEDAENEPDNNQSGTAEQPDENQEPQKKRRRKK
notes: FANCI, chicken (Gallus gallus); also called cFANCI; WT cFANCI; source: E. coli BL21(DE3) codon(+)RIL, purified
As to B1, the binding result is listed as “binds”.
